Experimental data from the RNAGym collection of RNA variant scans (doi:10.1073/pnas.2313332121).

B1: TPR t1 (parent)
chain: GACCAAUCUGCCCUCAGAGCUCGAGAACAUCUUCGGAUGCAGAGGAGGCAGGCUUCGGUGGCGCGAUAGCGCCAACGUCCUCAACCUCCAAUGCAUCCCACCACAUGAUGAUGCCUGAAGAGCCUUGGUUUUUUG

Variants of: B1
Test: polymerase ribozyme fitness, log enrichment relative to wild type (log ratio); higher = more active; in vitro selection for triplet polymerase activity
Summary of the method: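 After PCR construction and transcription, each subunit's mutant library from a heterodimeric triplet polymerase ribozyme was annealed with a biotinylated primer, the partner subunit and triplets. Incubation was frozen, at −7 °C, and extended constructs were gel-excised, bound to streptavidin beads and amplified by RT-PCR, in one selection round done in triplicate. Fitness is the logarithm of a genotype's enrichment divided by that of the wild type, from inverse-variance-weighted replicate averages of Illumina-sequenced inputs and outputs. The base of the logarithm is 2, and genotypes needed ≥10 input reads and ≥1 read per output.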

Variant	polymerase ribozyme fitness (log ratio)
G39A C56A U130A U131C	-1.5
G39U G44C C72U	-1.9
G39U C73U G77A	-1.39
G39A G57A G60C C101A G113C	-6.12
U38G C62A U106A G113U	-6.66
G39A G110C	-4.65
G39U U54G C73G	-4.41
C40U G51A G71C	-4.85
C40A U109C C115U	-6.69
C40U C72U C98G G127U U131C	-6.34
C40U C56U A90U	-2.08
G39U A66U A119G	-0.493
G39A G47U	-2.07
C40A G71U	-1.52
C40A G71A	-2
G39U U59A C98U A121G	0.547
C40G G52A A118U	-0.83
C40U C53U G61C U131A	-0.765
U38A G45C C89U	-2.34
C40A G61C A66U G128U U129A U133G	-6
U38G C80U	-1.64
U38C C56U	-0.488
C40U A119G U126G G127U	-0.212
C40G C102A	-3.26

Variant	polymerase ribozyme fitness (log ratio)
C40G C101G C104U	-3.21
G39A C124A	1.38
G39A C124G	1.36
C40A G52A C73U C104U U126A	-3.9
C40G C88G U125G	-6.8
U38G G42A C79U	-2.56
C40A C56G	-2.58
C40U A43G G61A G71U C124A	-4.58
G39C C70U C101A	-2.67
C40G A43G U54A	-4.85
C40U C70A	-1.93
G39A G69U C99A	-4.04
C40A G44A U92G A95U C115U	-6.45
G39A C115A	-0.711
C40G G52U	-2.76
U38G C73G A95C A100C U106A G127A	-2.6
C40U C53U	-0.572
C40G G60U C104A	-1.87
G39U G61U G110U	-2
G39A A43U	-1.78
C40G C70U U106A U116A G120C	-2.18
U38G A121C	1.24
C40U C82G	-1.54
G39A G57U G71U U78G C123A	-0.79

Variant	polymerase ribozyme fitness (log ratio)
G39A G58A	-1.7
C40G G45U U106A U112A	-0.392
C40U G120C	0.116
C40U C104A A119G	-1.84
G39A C70G U112G	-4.63
G39U A41U A43U G60U C82A C114A	-4.19
G39U C79U	-0.704
U38G C49U U125G	-2.98
G39U C64U A84C G122A C124A	0.97
C40U A46U G47A C53G A66C G117C	-7.17
G39U A41G G45A A119G U132G G135U	-2.12
C40U C88U	-0.588
U38G C53U C124U	0.103
C40U A50U G51A C82A C85U	-4.25
U38G G60U	-0.261
G39U G61U C73U U106A	-1.81
G39A A118G A121U	1.46
U38G A41U C62U	-3.01
C40A C114A	-3.51
C40U A41U G60A	-2.3
C40U G52A	-0.72
G39C C53A U54G G120U	0.139
U38G A105C U112A G122C	-5.07
G39C C114A	-1.94

Variant	polymerase ribozyme fitness (log ratio)
C40A G69C C85G G110U U112C	-6.63
G39A C64U C98G A103C A111G	-7.64
C40U A41C C56A C73U C114A	-3.67
G39A C56A G120U	-0.286
C40U C86G	-1.6
C40U C76U G117A	-2.16
G39U A90G C98U C102A	-4.8
G39A G51U C79U C101U	-5.14
C40G G69A	-3.43
C40G G69C	-2.54
U38G U106A	-1.09
G39U C79U C88A G110A G117U	-6.66
C40G C53A C70U C115G U125A	-3.58
C40A G127C	-2.27
G39U C62A	-2.16
U38A U54G U112C G120A	-0.498
C40U	-0.543
C40A	-1.28
C40G	-0.921
G39U G107U G117U	-6.23
C40U G61C C88A	-2.87
C40A C72U U92A C115A	-1.91
C40U C70U A84G	-2.34
G39U G42C C94U U106A U112A	-0.723

Variant	polymerase ribozyme fitness (log ratio)
G39A G135U	-1.41
C40U G60U U131G	-0.956
U38A G63A	-2.12
C40U C62G G127C	-3.27
C40G G47U A74U	-4.86
C40A A46G U132A	-1.49
U38G U55G	0.414
C40U G48C	-1.59
C40U A121U	1.68
G39C G77C C115U G128A	-4.5
G39U U109G	-5.73
C40A C85G C88U U129G	-3.87
U38G C80A C88U	-4.45
G39A C72G A105G	-2.86
C40G U78C	-1.4
C40U G60C	-0.857
G39C A43G C124U	-0.831
C40A G42A G48U G58A A90G	-2.65
G39A C56U G107U A111U U129A	-5.29
G39U C123A	-0.855
C40U U109A G120C	-5.74
G39A C97A G120C	-6.66
C40U C62G	-3.29
G39U G117C	-4.79

Variant	polymerase ribozyme fitness (log ratio)
U38G C97U	-4.33
C40G A95U	-3.37
G39A G61A C89A G120C	-1.19
G39A A90G	0.17
C40G C86U C101A	-2.66
C40G C56U G128C	-3.4
U38A G60A A121C G135U	-1.36
C40U A83G U112G	-1.69
G39C G44U	-2.29
C40U C62U A95G	-0.773
G39A C53U G61C A84U G127C	-2.2
C40U G110U G135C	-2.95
G39A C56G C94G A111C C114U U130G	-4.67
U38G G39A C72A U81A U112A	-2.71
C40A A46G U55A C99U G120A	-4.32
G39U A74G	-1.85
C40A U87G	-1.04
U38G C49A G77U C85G C115A	-3.84
G39C G65U	-6.02
C40U G42A C56A C76G G93U C114G	-4.34
U38G A90U	-1.61
U38C G42C U78A A84C	-3.16
U38G G42C A43U G71C C82U C115U	-4.36
G39A G48A A100C G120A	-1.06

Variant	polymerase ribozyme fitness (log ratio)
G39C C72U U129G	-2.2
C40A A118U G120U	-1.37
C40U A91C C97U C115U	-3.9
G39C U55G A119U	-0.691
G39C G48U C62U	-1.74
C40U C49A C94U G117C	-5.09
G39U G120U	-0.816
G39U G42A G57U G117A C124G	-3.25
G39C C56A	-0.765
C40G A84G	-2.06
C40U A74U A111C	-1.01
C40G G113A G122C	-1.81
C40G A46C G51U C62U U87G C115G	-6.61
C40G C94A G110C C114U A118G	-6.35
G39C A43U A90G C114U U125A	-2.64
U38A G60U C62A A74U C115G	-6.4
G39C A50C C56G G71A G77A A90U U96A	-4.32
G39U C40G	-3.47
C40A U92G C123G	-1.39
C40G G52A U78A C101A G120U	-2
C40U C49A G61U C82G U131G	-0.822
C40U G61U C86G	-2.87
G39A G69C	-0.611
